Laboratory results from paper PMC5922973, “Topoisomerase VI senses and exploits both DNA crossings and bends to facilitate strand passage” (eLife, 2018).
Where a chain is given by its changes, count along the chain named.

Tests used:
topo VI KGRR-EEE = molecular target: T1, topo VI KGRR-EEE (Methanosarcina mazei, UniProt Q8PUB7;Q8PUB8 1-369;1-621, K186E;R188E;R189E); assay: fluorescence anisotropy; 10 mM Mg2+; ambiguous, poorly defined dFAmax; FA: 20 nM probe, 50 mM K-glutamate, 20 mM HEPES-KOH pH 7.5, 10 mM MgCl2, 5% glycerol, 1 mM TCEP, 0.1 mg/mL BSA; incubated on ice, read at ambient temperature; competition with 100 nM enzyme; conditions: protein: recombinant; tags: N-terminal His6-TEV on Top6B, removed; chain copies: 2;2; label: 5'-FAM on S1; four-way Holliday junction, stacked-X, two GAAA-capped arms
T1 sequence 1: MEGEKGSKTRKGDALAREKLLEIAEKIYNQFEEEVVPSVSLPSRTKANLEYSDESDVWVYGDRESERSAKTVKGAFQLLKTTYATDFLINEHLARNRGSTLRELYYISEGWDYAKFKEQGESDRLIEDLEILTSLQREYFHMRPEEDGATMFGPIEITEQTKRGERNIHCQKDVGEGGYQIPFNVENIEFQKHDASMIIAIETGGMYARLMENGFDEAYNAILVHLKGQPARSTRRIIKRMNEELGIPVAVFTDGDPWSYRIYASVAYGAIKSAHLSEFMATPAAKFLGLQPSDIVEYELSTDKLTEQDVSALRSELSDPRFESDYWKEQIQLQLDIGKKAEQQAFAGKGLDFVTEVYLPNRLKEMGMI
T1 sequence 2: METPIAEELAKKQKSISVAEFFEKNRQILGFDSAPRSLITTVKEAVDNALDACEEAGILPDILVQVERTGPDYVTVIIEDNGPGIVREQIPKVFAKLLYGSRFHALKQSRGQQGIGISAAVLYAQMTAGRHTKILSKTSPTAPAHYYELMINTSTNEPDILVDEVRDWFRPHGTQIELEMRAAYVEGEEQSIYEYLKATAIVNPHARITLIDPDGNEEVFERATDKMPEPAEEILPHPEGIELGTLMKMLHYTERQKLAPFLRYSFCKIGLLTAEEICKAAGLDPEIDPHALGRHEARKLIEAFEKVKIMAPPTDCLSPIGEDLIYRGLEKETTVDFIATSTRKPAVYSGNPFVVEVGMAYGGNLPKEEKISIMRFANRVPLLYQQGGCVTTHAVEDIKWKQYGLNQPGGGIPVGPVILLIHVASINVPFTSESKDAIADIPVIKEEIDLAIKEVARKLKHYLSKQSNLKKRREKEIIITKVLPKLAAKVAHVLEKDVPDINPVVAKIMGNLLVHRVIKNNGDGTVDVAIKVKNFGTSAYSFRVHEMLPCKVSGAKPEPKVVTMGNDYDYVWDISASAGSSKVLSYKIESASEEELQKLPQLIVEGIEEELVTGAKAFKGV

topo VI H2TH-EEE = molecular target: T2, topo VI H2TH-EEE (Methanosarcina mazei, UniProt Q8PUB7;Q8PUB8 1-369;1-621, R263E;K268E;K308E); assay: fluorescence anisotropy; Hill h 1.6; FA: 20 nM probe, 50 mM K-glutamate, 20 mM HEPES-KOH pH 7.5, 10 mM MgCl2, 5% glycerol, 1 mM TCEP, 0.1 mg/mL BSA; incubated on ice, read at ambient temperature; competition with 100 nM enzyme; conditions: protein: recombinant; tags: N-terminal His6-TEV on Top6B, removed; chain copies: 2;2; label: 5'-FAM strand 1; blunt
T2 sequence 1: T1 sequence 1
T2 sequence 2: T1 sequence 2 with E186K, E188R, E189R, R263E, K268E, K308E

topo VI KGRR-AAA = molecular target: T3, topo VI KGRR-AAA (Methanosarcina mazei, UniProt Q8PUB7;Q8PUB8 1-369;1-621, K186A;R188A;R189A); assay: fluorescence anisotropy; FA: 20 nM probe, 50 mM K-glutamate, 20 mM HEPES-KOH pH 7.5, 10 mM MgCl2, 5% glycerol, 1 mM TCEP, 0.1 mg/mL BSA; incubated on ice, read at ambient temperature; competition with 100 nM enzyme; conditions: protein: recombinant; tags: N-terminal His6-TEV on Top6B, removed; chain copies: 2;2; label: 5'-FAM strand 1; blunt
T3 sequence 1: T1 sequence 1
T3 sequence 2: T1 sequence 2 with E186A, E188A, E189A

B1: 16 x 20 bp stacked junction (structured_DNA)
DNA 1: CGAATACTCAGCTCAACCGAAAGGTTGAGCCTTCGCTCGAAAGAGCGAAGTACTCTTCCG
DNA 2: CGGAAGAGTATGAGTATTCG
Kd (topo VI KGRR-EEE): ~1460 nM

B2: 40 bp duplex (dsDNA)
DNA 1: CTATTGAAAAAGGAAGAGTATGAGTATTCAACATTTCCGC
DNA 2: GCGGAAATGTTGAATACTCATACTCTTCCTTTTTCAATAG
Kd (topo VI H2TH-EEE): 45 ± 2 nM

B3: 60 bp duplex (dsDNA)
DNA 1: CGCTTCAATAATATTGAAAAAGGAAGAGTATGAGTATTCAACATTTCCGTGTCGCCCTTC
DNA 2: GAAGGGCGACACGGAAATGTTGAATACTCATACTCTTCCTTTTTCAATATTATTGAAGCG
Kd (topo VI KGRR-AAA): 99 ± 2 nM
